# T1: HA-Fbxl5 (human (cDNA from A549 cells), UniProt Q9UKA1 1-691)
# T1 sequence (looked up): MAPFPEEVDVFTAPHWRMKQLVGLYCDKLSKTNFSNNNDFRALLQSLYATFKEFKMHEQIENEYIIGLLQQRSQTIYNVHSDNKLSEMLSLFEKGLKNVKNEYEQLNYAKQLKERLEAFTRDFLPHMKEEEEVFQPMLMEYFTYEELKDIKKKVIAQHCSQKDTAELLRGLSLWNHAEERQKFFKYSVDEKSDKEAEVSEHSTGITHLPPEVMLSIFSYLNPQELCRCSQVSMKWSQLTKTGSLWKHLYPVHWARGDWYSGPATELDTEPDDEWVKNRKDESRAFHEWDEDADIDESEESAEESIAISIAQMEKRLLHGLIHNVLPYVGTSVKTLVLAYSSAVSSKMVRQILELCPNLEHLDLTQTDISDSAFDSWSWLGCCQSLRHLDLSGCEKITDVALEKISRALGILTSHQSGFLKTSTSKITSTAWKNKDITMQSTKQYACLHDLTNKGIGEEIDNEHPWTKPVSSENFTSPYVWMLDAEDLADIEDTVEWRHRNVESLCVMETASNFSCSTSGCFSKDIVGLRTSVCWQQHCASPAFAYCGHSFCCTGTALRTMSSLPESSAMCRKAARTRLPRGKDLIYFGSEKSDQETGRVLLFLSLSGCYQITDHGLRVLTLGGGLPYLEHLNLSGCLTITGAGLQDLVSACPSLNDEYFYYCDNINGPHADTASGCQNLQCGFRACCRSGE
# B1: GST-hSSB1 (natural protein, human (cDNA from A549 cells), UniProt Q9BQ15 1-211, looked up)
# chain: MTTETFVKDIKPGLKNLNLIFIVLETGRVTKTKDGHEVRTCKVADKTGSINISVWDDVGNLIQPGDIIRLTKGYASVFKGCLTLYTGRGGDLQKIGEFCMVYSEVPNFSEPNPEYSTQQAPNKAVQNDSNPSASQPTTGPSAASPASENQNGNGLSAPPGPGGGPHPPHTPSHPPSTRITRSQPNHTPAGPPGPSSNPVSNGKETRRSSKR
# Target: T1, HA-Fbxl5
# Assay: pull-down
binder,measurement,value
B1,binding result,binds

# Reference: article PMC4191430 (Nucleic Acids Research, 2014)
